Reference: patent US20160235855A1, “STABLE AQUEOUS PARENTERAL PHARMACEUTICAL COMPOSITIONS OF INSULINOTROPIC PEPTIDES” (SHANGHAI BENEMAE PHARMACEUTICAL CORPORATION, priority 2013, published 2016)
Read-outs that look alike come from different tables or passages of the source.

Experiments:
[1] = HPLC analysis of GLP-1 on C18 column (chemical stability); type: physicochemical
Procedure: An investigation method for chemical stability: a test sample was taken, and analyzed on a C18 column (3.5 μm, 300 Å, φ 4.6×50 mm). An analytical method: mobile phase A was 0.1% trifluoroacetic acid, B was the A phase with 80% acetonitrile added therein, the detection wavelength was 280 nm, 60% A and 40% B were balanced for 3 min, and the sample amount was 2 to 5 μL. Elution was performed with linear gradient for 8 min with 40% to 53% of the B phase and 60% to 47% of the A phase. Peak area was calculated using the normalization method. A standard sample was determined with the same method. The peptide concentration in the sample was calculated by comparison with the standard sample, and compared with the determination result at day 0, to calculate the retention of the peptide content in the sample. A higher retention of the peptide content indicated better chemical stability.
The HPLC detection method was performed according to Example 1.
The formulation method and HPLC detection method of the pharmaceutical compositions were performed according to Example 5.

[2] = Long-term stability of GLP-1 formulations by HPLC; type: physicochemical
Procedure: The GLP-1 purity was determined by comparing the GLP-1 peak area with the total peak area.

[3] = WO00/37098, cited from earlier work

Glucagon-like peptide 1 [GLP-1]
Results of HPLC analysis, retention of the peptide content ([1]; pH 3.5, NaCl 0 mg/mL, 45° C., 8 days): 88.66%
Results of HPLC analysis, retention of the peptide content ([1]; pH 3.5, NaCl 1.17 mg/mL, 35° C., 8 days): 96.92%
Results of HPLC analysis, retention of the peptide content ([1]; pH 3.5, NaCl 1.17 mg/mL, 45° C., 8 days): 92.54%
Results of HPLC analysis, retention of the peptide content ([1]; pH 3.5, NaCl 8.77 mg/mL, 35° C., 8 days): 98.06%
Results of HPLC analysis, retention of the peptide content ([1]; pH 3.5, NaCl 8.77 mg/mL, 45° C., 8 days): 92.90%
Results of HPLC analysis, retention of the peptide content ([1]; pH 3.6, NaCl below 20 mmol/L, 25° C., 30 days): 93.04%
Results of HPLC analysis, retention of the peptide content ([1]; pH 3.6, NaCl below 20 mmol/L, 35° C., 30 days): 86.25%
Results of HPLC analysis, retention of the peptide content ([1]; pH 3.7, NaCl below 20 mmol/L, 25° C., 30 days): 95.15%
Results of HPLC analysis, retention of the peptide content ([1]; pH 3.7, NaCl below 20 mmol/L, 35° C., 30 days): 86.11%
Results of HPLC analysis, retention of the peptide content ([1]; pH 3.8, NaCl below 20 mmol/L, 25° C., 30 days): 97.10%
Results of HPLC analysis, retention of the peptide content ([1]; pH 3.8, NaCl below 20 mmol/L, 35° C., 30 days): 89.48%
Results of HPLC analysis, retention of the peptide content ([1]; pH 3.9, NaCl below 20 mmol/L, 25° C., 30 days): 98.08%
Results of HPLC analysis, retention of the peptide content ([1]; pH 3.9, NaCl below 20 mmol/L, 35° C., 30 days): 90.36%
Results of HPLC analysis, retention of the peptide content ([1]; pH 4.0, NaCl 0 mg/mL, 35° C., 8 days): 96.07%
Results of HPLC analysis, retention of the peptide content ([1]; pH 4.0, NaCl 0 mg/mL, 45° C., 8 days): 92.77%
Results of HPLC analysis, retention of the peptide content ([1]; pH 4.0, NaCl 1.17 mg/mL, 35° C., 8 days): 97.43%
Results of HPLC analysis, retention of the peptide content ([1]; pH 4.0, NaCl 1.17 mg/mL, 45° C., 8 days): 93.76%
Results of HPLC analysis, retention of the peptide content ([1]; pH 4.0, NaCl 8.77 mg/mL, 35° C., 8 days): 98.73%
Results of HPLC analysis, retention of the peptide content ([1]; pH 4.0, NaCl 8.77 mg/mL, 45° C., 8 days): Turbid
Results of HPLC analysis, retention of the peptide content ([1]; pH 4.0, NaCl below 20 mmol/L, 25° C., 30 days): 97.85%
Results of HPLC analysis, retention of the peptide content ([1]; pH 4.0, NaCl below 20 mmol/L, 35° C., 30 days): 91.80%
Results of HPLC analysis, retention of the peptide content ([1]; pH 4.1, NaCl below 20 mmol/L, 25° C., 30 days): 98.90%
Results of HPLC analysis, retention of the peptide content ([1]; pH 4.1, NaCl below 20 mmol/L, 35° C., 30 days): 91.35%
Results of HPLC analysis, retention of the peptide content ([1]; pH 4.2, NaCl below 20 mmol/L, 25° C., 30 days): 98.24%
Results of HPLC analysis, retention of the peptide content ([1]; pH 4.2, NaCl below 20 mmol/L, 35° C., 30 days): 93.96%
Results of HPLC analysis, retention of the peptide content ([1]; pH 4.5, NaCl 0 mg/mL, 35° C., 8 days): 97.23%
Results of HPLC analysis, retention of the peptide content ([1]; pH 4.5, NaCl 0 mg/mL, 45° C., 8 days): 92.45%
Results of HPLC analysis, retention of the peptide content ([1]; pH 4.5, NaCl 1.17 mg/mL, 35° C., 8 days): 95.29%
Results of HPLC analysis, retention of the peptide content ([1]; pH 4.5, NaCl 1.17 mg/mL, 45° C., 8 days): Turbid
Results of HPLC analysis, retention of the peptide content ([1]; pH 4.5, NaCl 8.77 mg/mL, 35° C., 8 days): Turbid
Results of HPLC analysis, retention of the peptide content ([1]; pH 4.5, NaCl 8.77 mg/mL, 45° C., 8 days): Turbid
Results of HPLC analysis, retention of the peptide content ([1]; pH 7.0, NaCl 0 mg/mL, 35° C., 8 days): 94.30%
Results of HPLC analysis, retention of the peptide content ([1]; pH 7.0, NaCl 0 mg/mL, 45° C., 8 days): 88.83%
Results of HPLC analysis, retention of the peptide content ([1]; pH 7.0, NaCl 1.17 mg/mL, 35° C., 8 days): 93.35%
Results of HPLC analysis, retention of the peptide content ([1]; pH 7.0, NaCl 1.17 mg/mL, 45° C., 8 days): 90.43%
Results of HPLC analysis, retention of the peptide content ([1]; pH 7.0, NaCl 8.77 mg/mL, 35° C., 8 days): 94.34%
Results of HPLC analysis, retention of the peptide content ([1]; pH 7.0, NaCl 8.77 mg/mL, 45° C., 8 days): 92.79%
Results of HPLC analysis, retention of the peptide content ([1]; pH 7.0, NaCl 29.22 mg/mL, 35° C., 8 days): 95.83%
Results of HPLC analysis, retention of the peptide content ([1]; pH 7.0, NaCl 29.22 mg/mL, 45° C., 8 days): 95.37%
chemical stability ([1]; pH 7.0 to 7.5): poor
Results of HPLC analysis, retention of the peptide content ([1]; pH 7.5, NaCl 0 mg/mL, 35° C., 8 days): 90.89%
Results of HPLC analysis, retention of the peptide content ([1]; pH 7.5, NaCl 1.17 mg/mL, 35° C., 8 days): 91.88%
Results of HPLC analysis, retention of the peptide content ([1]; pH 7.5, NaCl 1.17 mg/mL, 45° C., 8 days): 85.88%
Results of HPLC analysis, retention of the peptide content ([1]; pH 7.5, NaCl 8.77 mg/mL, 35° C., 8 days): 92.15%
Results of HPLC analysis, retention of the peptide content ([1]; pH 7.5, NaCl 8.77 mg/mL, 45° C., 8 days): 87.48%
Results of HPLC analysis, retention of the peptide content ([1]; pH 7.5, NaCl 29.22 mg/mL, 35° C., 8 days): 93.74%
Results of HPLC analysis, retention of the peptide content ([1]; pH 7.5, NaCl 29.22 mg/mL, 45° C., 8 days): 88.04%
chemical instability ([1]; pH value lower than about 3.5): acid hydrolysis
storage duration ([2]; 2 to 8° C., composition pH about 3.5 to 5.0): ≥ 2 years
storage duration ([2]; 4° C., GLP-1 concentration up to 2 mg/ml, preservative added): 2 years
physical stability ([3]; between pH 6.8 and 7.5): poor
chemical stability ([3]; pH value greater than 8.8): reduced
appearance of the formulation ([3]; pH value less than 8.0 after the addition of a preservative): turbid
